Measured values taken from the DeepSol protein solubility set.

Assay: soluble on expression in E. coli; label from the status in PepcDB or PDB records

Row | Sequence | soluble on expression in E. coli
1 | MVLETPVCSPIDKESSSDDVQLNKPPKKKRKLDVVYPPRDNTSSSSDVKPKVPGYCGVKAIGCNRSDELLAEVALHSYNSQTGTNLELMTVTQVMLQSVAHINYHMILDAFDPANNSLSSIEICLWDAAVKNNEKLRLVTTFCSLEGSGDKGSQWDPNGVDVLYTGVMPKWLDDGALSGSEKLHYYEVNDSDLQENKWLHLYAQVGAYSKWDLGMVKHFPLEIKKVVVQTMEDDIESNLKLKSSNAIFYITFTTSGGVECACIIRQTRNGRPQHMCLEINNVEMDK | soluble
2 | MPEYSSVTGLEGVKFAPLKKENGFYVATKIIDYPYAINAKVNTETSTEKQYADNKLVDMAVTTGSTKLELEMRDLPMEILEELFGIEETDGIYMFKKNVIAPWVAMSFYGPKANGKNRHVGLVKGRFSLPDDEWKTKEEKTDFQTVKLSAEFMEREQDNAYKVLADEDAPNFNLDKFYEKVFGNAYKNPDSGSDNKSSVDIGKTVLEHHHHHH | soluble
3 | VTGFGLRLAEAKARRGPLCLGIDPHPELLRGWDLATTADGLAAFCDICVRAFADFAVVKPQVAFFESYGAAGFAVLERTIAELRAADVLVLADAKRGDIGATMSAYATAWVGDSPLAADAVTASPYLGFGSLRPLLEVAAAHGRGVFVLAATSNPEGAAVQNAAADGRSVAQLVVDQVGAANEAAGPGPGSIGVVVGATAPQAPDLSAFTGPVLVPGVGVQGGRPEALGGLGGAASSQLLPAVAREVLRAGPGVPELRAAGERMRDAVAYLAAV | not soluble
4 | MYSRADRLLRQFSLKLNTDSIVFDENRLCSFIIDNRYRILLTSTNSEYIMIYGFCGKPPDNNNLAFEFLNANLWFAENNGPHLCYDNNSQSLLLALNFSLNESSVEKLECEIEVVIRSMENLYHILQDKGITLDTDYTHHHHHH | soluble
5 | VGKEKMPVELYHAGEEITQLVREFATDKMKKAVQTFEKLERMENMDRVKEETLAHFEETLEDFEDFVGDIEEVLQDIIKEEVRKLIVHENVRPDNRKLEEIRP | not soluble
6 | MSSSLFAPTIETIDYPFPPKPVPLSDAQKADYKARIKQLLIEKDAVLVAHYYTDPEIQALAEETGGCVSDSLEMARFGRDHPAKTLIVAGVKFMGETAKILSPEKTILMPTLEATCSLDLGCPIDKFSAFCDAHPDHTVVVYANTSAAVKARADWVVTSSIALEIVEHLDSEGKKIIWGPDRHLGSYIAKQTGAEMLMWQGDCIVHDEFKANALRDLKSVYPDAAILVHPESPASVVAMADAVGSTSQLIKAAQTMPNERFIVATDRGIFYKMQQAAPGKTLIEAPTGGNGATCKSCAHCPWMAMNGLKAIEASLSNSDKTTHEIFVDEDLRVKALIPLTRMLDFAKTLNMKVKGNALEHHHHHH | not soluble
7 | MRRVNILCSFALLFASHTSLAVTYPLPPEGSRLVGQSFTVTVPDHNTQPLETFAAQYGQGLSNMLEANPGADVFLPKSGSQLTIPQQLILPDTVRKGIVVNVAEMRLYYYPPDSNTVEVFPIGIGQAGRETPRNWVTTVERKQEAPTWTPTPNTRREYAKRGESLPAFVPAGPDNPMGLYAIYIGRLYAIHGTNANFGIGLRVSQGCIRLRNDDIKYLFDNVPVGTRVQIIDQPVKYTTEPDGSNWLEVHEPLSRNRAEYESDRKVPLPVTPSLRAFINGQEVDVNRANAALQRRSGMPVQISSGSRQMF | not soluble
8 | MLASARRALHPGHPPAIHRAMNSEIDPGRCPLCQQSNRCTLAYPTSATQACWCFTTEIDAAVLERIPAELRRRACLCPRCAQLLPPDADD | not soluble
9 | MSLRYFVFATFKVHKDATNSYFSNGDVVVVNRNRTPKYKDFIVYKVGKIFYISRVIGEPNQKVRVMDDILYLNDVFKDEPYIEKMKNAYSEKKDGQMPFTSDFSVETLTRNKESRVPKGSYLVLNDNRQNKNDSRKFGLIKEKDIRGVITFKVYPLSEFGFTASEGHHHHHH | soluble
10 | MAVGAALPPIPEGAPVLIAGPTASGKSALALEIAERFGGVIVNADASQVYDCWRAISARPSPEEEARAPHLLYGHLPYDAPYSAGHWLREVTPLLDGTARPIIVGGTGLYFTALTEGMADIPATPPDVRAEADTLPLDRLLAGIDPATAAGLDRNNRARVQRAWEVERATGRALHLWQADTPPPPLPLARTVPLVLEVDKLWLWDRIARRFDQMLDQGALDEVAAMAARYDPALPAFKAIGVPELMAHLRGEITLDAARERASIATRQYAKRQRSWFRARMGDWHRLPVGGLEHHHHHH | not soluble
11 | MGSDKIHHHHHHMRVLAIRHVEIEDLGMMEDIFREKNWSFDYLDTPKGEKLERPLEEYSLVVLLGGYMGAYEEEKYPFLKYEFQLIEEILKKEIPFLGICLGSQMLAKVLGASVYRGKNGEEIGWYFVEKVSDNKFFREFPDRLRVFQWHGDTFDLPRRATRVFTSEKYENQGFVYGKAVGLQFHIEVGARTMKRWIEAYKDELEKKKIDPRLLLETAEREEKVLKGLLRSLLERMVES | not soluble
12 | MMCISKLPAVLLILSVALNHLRATPVRSGSNPQMDKRKCNTATCATQRLANFLVRSSNNLGPVLPPTNVGSNTYGKRNAAGDPNRESLDFLLV | not soluble
13 | MNYSLRQLRIFITVAQAKSFSRAGDRIGLSQSAVSHSVKELERQTGVRLLDRTTREVVLTEAGQQLATRLERVLDELNSILRDAGRVGTQLTGTVRVAASQTISAHLIPQCIAQSNSLYPAIDFVLHDRPQQWVLESIRQGEVDFGIVIDPGAAVDLQCEAILSEPFLLLCRQDHPLAHQEWVSWQDLKQASLVLQDYASGSRPLIDAALAHFAIEADIVQEIGHPATLFPMVEAGIGISVLPALALPLPQGSHLQVKRLTPVVERQLMLARRKNRSLSTAAQALWDVVRTQASELTAARAKDPLYQL | not soluble
14 | MGSDKIHHHHHHMTESSINLLFSIDNRFVEQFKVTLYSLYQNTSNKNLKIYMLQKELLADHKAIERFCYQLGLSYKPIIIGEEDFKDAPVSDRYPETIYYRLLAQDYLPKSLDKILYLDADILCLNDIAPLYQMDMKNYIYAAASHVSDKSITDIVNKLRLNNFEAEGYFNSGVLLMNLEQCRQKIKPQDIMNYISRKGNTLLLPDQDVLNALYGTKTHLIPDEIYNYDARYNIIYFTRSLGEWDLDWVIENTVFLHFCGKDKPWRKDYKGRYAALYKHYQHRVKILEK | not soluble
15 | MPLSDADYNDPDNEEVAFLSRGLLEACIEFIRETPAGDALRIVAYEFTFKRILLELKAALERGVDVRIVYHATTANEKAIADAKLPENSKGVQILFKRTRPQTPHNKFIVRLKKGKTPVSVWTGSTNFTPSGFLGQTNVGHKVTDGDIAKIYLQLWEGLKADPDDFDATQAAMALTPLEHHHHHH | soluble
16 | DDGSNEDTKQALSALSEQGLIKLISLSENQGKGGAVMAGLHQAHQLGFTHTIQIDADGQHDLEALPKLLSASETKPDNLISGQPIYDESVPKARLYGRYATHIWVWIETLSLSIKDSMCGFRAYPVAKTVAVLNKYNIGKRMDFDIEILVRMYWEGVDIDFVPTRVIYPEGGISHFDALWDNVKISWMHTRLFFGMLPRIPSLLARKRRHTDDSNAHWSKRKEQGTILGIKTLLAVYRLFGRKAFDLILKLVMRYYHFTGKSAREASEIYLQNLQRYAAQQNIALPKQLDSYHHLLSFGRTMLDKLAAWQGDFNVDNLTIHGQHHFEEMAQKKQGVLILGSHLGNIELCRALGRRHSHVKINALVFTQHAEQFNAVMKAVNPNSELNLIQVSSMGPDTAILLQQKIEQGEWVVIVGDRTSTSKENRVVWADFLGKPAPFPQGP | not soluble
17 | MAVKGLGEVDQKYDGSKLRIGILHARWNRKIIDALVAGAVKRLQEFGVKEENIIIETVPGSFELPYGSKLFVEKQKRLGKPLDAIIPIGVLIKGSTMHFEYICDSTTHQLMKLNFELGIPVIFGVLTCLTDEQAEARAGLIEGKMHNHGEDWGAAAVEMATKFN | soluble
18 | MRIDILTLFPGMFSGVLSESILKKAQEKGAVDIRLIDFREFADNKHKTVDDYPYGGGAGMVLKPQPIFDAVEHVTAGSPGARIILLCPQGERYTQKKAEELAKETHLVLICGHYEGYDERIRQYLATDEISIGDYILTGGELGAMVIVDSVVRLLPGVLGNEASPVDDSFSSGLLEYPQYTRPADFRGMKVPDILLSGNHQLIAEWREKESLRRTFLRRPDLLDEYPLTDKQKQWLKEWEKERE | soluble
